Laboratory results as given in patent publication US9976167B2, “Group of glycosyltransferases and use thereof” (Shanghai Institutes For Biological Sciences, Chinese …, priority 2012, dated 2018).

B1: 3GT2: glycosyltransferase protein with 495 amino acids, SEQ ID NO.: 24; homology with UGT73C12 of Barbarea vulgaris higher than 99% (protein, listed as Barbarea vulgaris)
chain: MVSEITHKSYPLHFVLFPFMAQGHMIPMVDIARLLAQRGVKITIVTTPHNAARFKNVLSRAIESGLPISIVQVKLPSQEAGLPEGNETLDSLVSMELMIHFLKAVNMLEEPVQKLFEEMSPQPSCIISDFCLPYTSKIAKKFNIPKILFHGMCCFCLLCMHILRKNREIVENLKSDKEHFVVPYFPDRVEFTRPQVPVATYVPGDWHEITEDMVEADKTSYGVIVNTYQELEPAYANDYKEARSGKAWTIGPVSLCNKVGADKAERGNKADIDQDECLKWLNSKEEGSVLYVCLGSICNLPLSQLKELGLGLEESQRPFIWVIRGWEKNKELHEWFSESGFEERIKDRGLLIKGWAPQMLILSHHSVGGFLTHCGWNSTLEGLTAGLPLLTWPLFADQFCNEKLAVQVLKAGVSAGVDQPMKWGEEEKIGVLVDKEGVKKAVEELMGESDDAKEIRRRAKELGELAHKAVEEGGSSHSNITSLLEDIMQLAQSNN
modifications: 3GT2
B2: gGT13: glycosyltransferase protein with 476 amino acids, SEQ ID NO.: 4 (protein)
chain: MGAELILIPSPGVGHLVSTVEIAKLLISRDERLSITVLVMKFSHDTGVTAYTRSLQKDAPNRIVFVDLPQNESLISSPKSFFTSFIESQTSPVRDSVRQIVSRSDSNKLAGFVIDMFCTPMIDVANEFGVPTYVFFTSGAAFLGLQFYHLSLSDEHNQDLTEYKDTDVELSIPSFINPVPAKVLPSVILNKEGSTMLQSISRRFKEAKAILVNTFAELEPHAIKALGDNCKIPPIYPVGPIINLKNKEGTTQNHSSEDGIISWLDNQPPSSVVFLCFGSFGSFDEGQVREIANGLEQSGQRFLWSLRRRPEKMELPKDYENPEEVLPEGFIERTSGMGKVIGWAPQTAILSHPAVGGFVSHCGWNSTLESIWCGVPMATWPIYAEQQINAFELVKELGMAVEIKMDYREDYIFAPENNLVVTADQIEKGMRCLMMDGESEMRKKVEEMKEKSRMAMVKGGSSYISLGHFIEDVMRN
modifications: Panax ginseng; gGT13
B3: 3GT1: glycosyltransferase protein with 495 amino acids, SEQ ID NO.: 22; homology with UGT73C10 of Barbarea vulgaris higher than 99% (protein, listed as Barbarea vulgaris)
chain: MVSEITHKSYPLHFVLFPFMAQGHMIPMVDIARLLAQRGVKITIVTTPHNAARFENVLSRAIESGLPISIVQVKLPSQEAGLPEGNETFDSLVSTKLLVPFFKAVNMLEEPVQKLFEEMSPQPSCIISDFCLPYTSKIAKKFNIPKILFHGMCCFCLLCMHVLRKNREILENLKSDKEHFVVPYFPDRVEFTRPQVPLATYVPGEWHEIKEDMVEADKTSYGVIVNTYQELEPAYANGYKEARSGKAWTIGPVSLCNKVGADKAERGNKADIDQDECLKWLDSKEEGSVLYVCLGSICSLPLSQLKELGLGLEESQRPFIWVVRGWEKNKELLEWFSESGFEERVKDRGLLIKGWSPQMLILAHHSVGGFLTHCGWNSTLEGITSGVPLLTWPLFGDQFCNQKLVVQVLKVGVSAGVEEVTNWGEEEKIGVLVDKEGVKKAVEELMGESDDAKEIRKRVKELGQLAHKAVEEGGSSHSNITSLLEDIMQLAQPNN
modifications: 3GT1

Tests used:
prostate cancer cells = conditions: cited from earlier work
osteoclasts = conditions: cited from earlier work
[1] = Glycosyltransfering reaction with crude enzyme, substrate PPD; assay type: biochemical; conditions: for substrate that could be catalyzed: PPD: crude enzyme: lysate supernatant of recombinant E. coli, UDP-glucose, 35° C., 12 hrs, TLC
[2] = Glycosyltransfering reaction with crude enzyme, substrate PPT; assay type: biochemical; conditions: for glycosylation of C3-OH of PPT (product 3-O-β-(D-glucopyranosyl)-PPT): crude enzyme of Example 11, 35° C., 12 hrs, TLC
[3] = Glycosyltransfering reaction with crude enzyme, substrate DM; assay type: biochemical; conditions: 35° C., 12 hrs, TLC; for glycosylation of C3-OH of DM (product 3-O-β-(D-glucopyranosyl)-Dammarenediol II): crude enzyme of Example 11; for substrate that could be catalyzed: DM: crude enzyme: lysate supernatant of recombinant E. coli, UDP-glucose
[4] = Glycosyltransfering reaction with crude enzyme, substrate CK; assay type: biochemical; conditions: for glycosylation of C3-OH of CK (product F2): crude enzyme of Example 11; for glycosylation of C3-OH of CK (product F2) / substrate that could be catalyzed: CK: 35° C., 12 hrs, TLC; for substrate that could be catalyzed: CK: crude enzyme: lysate supernatant of recombinant E. coli, UDP-glucose
Experimental: (§1) According to the method as in Example 4, the cell lysate of recombinant yeasts expressing gGT13 and gGT30 were used to catalyze PPD and PPT.
(§2) The glycosyltransfering reactions of ginsenosides and ginsengenins were catalyzed by using the lysis supernatant of the recombinant yeasts expressing 3GT1, 3GT2, 3GT3 and 3GT4 as crude enzymes. The lysis supernatant of recombinant E. coli expressing empty vectors was used as control. The 100 μL reaction system is shown as Table 3. The reaction was conducted under 35° C. for 12 hrs, then stopped by adding 100 μL of butanol. The product were extracted, dried in vacuum, and dissolved in methanol.

[5] = Glycosyltransfering reaction with crude enzyme, substrate F1; assay type: biochemical; conditions: for glycosylation of C3-OH of F1 (product 3-O-β-(D-glucopyranosyl)-F1): crude enzyme of Example 11; for glycosylation of C3-OH of F1 (product 3-O-β-(D-glucopyranosyl)-F1) / substrate that could be catalyzed: F1: 35° C., 12 hrs, TLC; for substrate that could be catalyzed: F1: crude enzyme: lysate supernatant of recombinant E. coli, UDP-glucose
Experimental: as §1
The lysis supernatant of recombinant E. coli expressing empty vectors was used as control. The 100 μL reaction system is shown as Table 3. The reaction was conducted under 35° C. for 12 hrs, then stopped by adding 100 μL of butanol. The product were extracted, dried in vacuum, and dissolved in methanol.

[6] = Glycosyltransfering reaction with crude enzyme, substrate 25-OH-PPD; assay type: biochemical; conditions: 35° C., 12 hrs, TLC; for glycosylation of C3-OH of 25-OH-PPD (product 3-O-β-(D-glucopyranosyl)-25-OH-PPD): crude enzyme of Example 11; for substrate that could be catalyzed: 25-OH-PPD: crude enzyme: lysate supernatant of recombinant E. coli, UDP-glucose
Experimental: as §2

[7] = Glycosyltransfering reaction with crude enzyme, substrate lanosterol; assay type: biochemical; conditions: 35° C., 12 hrs, TLC; for glycosylation of C3-OH of lanosterol (product 3-O-β-(D-glucopyranosyl)-lanosterol): crude enzyme of Example 11; for substrate that could be catalyzed: lanosterol: crude enzyme: lysate supernatant of recombinant E. coli, UDP-glucose
Experimental: as §2

[8] = Glycosyltransfering reaction with crude enzyme, substrate 20(R)-PPD; assay type: biochemical; conditions: 35° C., 12 hrs, TLC; for catalysis of 20(R)-PPD (product 20(R)-ginsenoside Rh2): crude enzyme of Example 11; for substrate that could be catalyzed: 20(R)-PPD: crude enzyme: lysate supernatant of recombinant E. coli, UDP-glucose
[9] = Glycosyltransfering activities on ginsengenins and saponins: glycosylation site and specificity (summary); assay type: biochemical; conditions: for effect of the steric configuration of the hydroxyl or glycosyl at C20 on catalytic activity: 20(S)-type versus 20(R)-type substrates; for glycosylation site: C-3: Table 2, tetracyclic triterpenoid substrates; for substrate spectrum / specificity: comparison of 3GT1, 3GT2, 3GT3 and 3GT4, Table 6
Procedure, shortened: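 Crude enzymes were lysate supernatants of recombinant yeast expressing 3GT1, 3GT2, 3GT3 or 3GT4, with empty-vector lysate as control. Reactions ran at 35° C for 12 hrs and were stopped with butanol; products were extracted, dried in vacuum and dissolved in methanol.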

[10] = Glycosyltransfering reaction with crude enzyme, substrate PPT; assay type: biochemical; conditions: crude enzyme: lysate supernatant of recombinant E. coli; UDP-glucose, 35° C., 12 hrs; TLC
[11] = Glycosyltransfering reaction with crude enzyme, substrate Rh2; assay type: biochemical; conditions: cell lysate of recombinant yeasts, method of Example 4
[12] = Glycosyltransfering reaction with crude enzyme, substrate Rg3; assay type: biochemical; conditions: cell lysate of recombinant yeasts, method of Example 4
Experimental: (§3) The lysate supernatant of the recombinant yeasts expressing the empty vector was used as control.
(§4) The reaction was conducted under 35° C. for 12 hrs, then stopped by adding 100 μL of butanol. The product were extracted, dried in vacuum, and dissolved in methanol.
(§5) The reaction products were first detected by thin layer chromatography (TLC). […]

[13] = Glycosyltransfering reaction with crude enzyme, substrate F2; assay type: biochemical; conditions: cell lysate of recombinant yeasts, method of Example 4
Experimental: as §1
The lysate supernatant of the recombinant yeast expressing empty vectors was used as control. The reaction was conducted under 35° C. for 12 hrs, and then stopped by adding 100 μL of butanol. The product were extracted, dried in vacuum, and dissolved in methanol.
The glycosyltransfering reactions of ginsenosides Rh2 and F2 were catalyzed by using the lysate supernatant of the recombinant yeasts expressing 3GT1, 3GT2, 3GT3 and 3GT4 as crude enzymes. The 100 μL reaction system is shown as Table 3. The reaction was conducted under 35° C. for 12 hrs, and then stopped by adding 100 μL of butanol. The product were extracted, dried in vacuum, and dissolved in methanol.

[14] = Glycosyltransfering reaction with crude enzyme, substrate Rh1; assay type: biochemical; conditions: cell lysate of recombinant yeasts, method of Example 4
Experimental: as §3, §4, §5

[15] = Glycosyltransfering reaction with crude enzyme, substrate Rg1; assay type: biochemical; conditions: cell lysate of recombinant yeasts, method of Example 4
[16] = cell lysate of recombinant yeasts, method of Example 4

Molecule | substrate that could be catalyzed: PPD [1] | glycosylation of C3-OH of PPT (product 3-O-β-(D-glucopyranosyl)-PPT) [2] | glycosylation of C3-OH of DM (product 3-O-β-(D-glucopyranosyl)-Dammarenediol II) [3] | substrate that could be catalyzed: DM [3] | glycosylation of C3-OH of CK (product F2) [4] | substrate that could be catalyzed: CK [4] | glycosylation of C3-OH of F1 (product 3-O-β-(D-glucopyranosyl)-F1) [5] | substrate that could be catalyzed: F1 [5] | glycosylation of C3-OH of 25-OH-PPD (product 3-O-β-(D-glucopyranosyl)-25-OH-PPD) [6] | substrate that could be catalyzed: 25-OH-PPD [6] | glycosylation of C3-OH of lanosterol (product 3-O-β-(D-glucopyranosyl)-lanosterol) [7] | substrate that could be catalyzed: lanosterol [7] | catalysis of 20(R)-PPD (product 20(R)-ginsenoside Rh2) [8] | substrate that could be catalyzed: 20(R)-PPD [8] | effect of the steric configuration of the hydroxyl or glycosyl at C20 on catalytic activity [9] | glycosylation site: C-3 [9] | substrate spectrum / specificity [9] | substrate that could be catalyzed: PPT [10] | other results
CC(C)=CCC[C@@](C)(O)[C@H]1CC[C@]2(C)[C@@H]1[C@H](O)C[C@@H]1[C@@]3(C)CC[C@H](O[C@@H]4O[C@H](CO)[C@@H](O)[C@H](O)[C@H]4O)C(C)(C)[C@@H]3CC[C@]12C [R-type ginsenoside Rh2, 3-O-β-(D-glucopyranosyl)-20(R)-protopanaxadiol] | – | – | – | – | – | – | – | – | – | – | – | – | – | – | – | – | – | – | inhibition of prostate cancer cells (prostate cancer cells): quite poor; cytotoxicity to osteoclasts (osteoclasts): without any cytotoxicity; inhibition of the generation of osteoclasts (osteoclasts): selectively inhibit
B1 | ✓ | could be glycosylated | could be glycosylated | ✓ | further glycosylating its C3-OH | ✓ | could be glycosylated | ✓ | could be glycosylated | ✓ | could be glycosylated | ✓ | could catalyze | ✓ | not affected | ✓ | most number of substrates | ✓ | –
B2 | – | – | – | – | – | – | – | – | – | – | – | – | – | – | – | – | – | – | conversion of PPD [1, 16]: neither converted; conversion of PPT [2, 16]: neither converted; conversion of Rh2 [11]: neither converted; conversion of Rg3 [12]: neither converted; conversion of CK [4, 16]: neither converted; conversion of F2 [13]: neither converted; conversion of F1 [5, 16]: neither converted; conversion of Rh1 [14]: neither converted; conversion of Rg1 [15]: neither converted
B3 | ✓ | could be glycosylated | could be glycosylated | ✓ | further glycosylating its C3-OH | ✓ | could be glycosylated | ✓ | could be glycosylated | ✓ | could be glycosylated | ✓ | could catalyze | ✓ | not affected | ✓ | most number of substrates | ✓ | –
